In experiment [1] the target is SENP1 (415–644) (human) (UniProt Q9P0U3).
The target of experiment [2] is SENP1 C603A (415–644) (human) (UniProt Q9P0U3). The experiment is described as follows: ITC.

This note sets out measurements from publication PMC3326531.

Chain of SENP1 (415–644) (human) (Q9P0U3 415-644): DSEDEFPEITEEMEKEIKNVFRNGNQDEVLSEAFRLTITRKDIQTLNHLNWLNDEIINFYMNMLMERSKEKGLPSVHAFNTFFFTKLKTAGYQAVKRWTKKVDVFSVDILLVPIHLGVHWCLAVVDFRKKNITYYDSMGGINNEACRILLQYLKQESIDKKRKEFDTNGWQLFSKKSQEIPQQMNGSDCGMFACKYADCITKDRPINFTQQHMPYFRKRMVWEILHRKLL
Chain of SENP1 C603A (415–644) (human) (Q9P0U3 415-644 C603A): as the sequence (Q9P0U3 415-644) above, with C189A counted along it

As for “YFP–RanGAP1–SUMO-2–ECFP (from UniProt P46060 418-587; P55854 1-93) (complex)”, the apparent Km, Km(app), of cleavage by SENP1 (FRET-based protease assay) in experiment [1] was found to be 0.242 µM.
For orientation: Kd means the equilibrium constant for the complex coming apart. A lower Kd goes with a tighter complex. As to “mature SUMO-2 (SUMO-2-GG) (from UniProt P55854 1-93) (natural protein)”, in experiment [2], the Kd turned out to be 0.00856 µM and the dH was -14.5 kcal/mol. In experiment [1], the IC50 of product inhibition of SENP1 cleavage of YFP–RanGAP1–SUMO-2–ECFP (500 nM) turned out to be 1.6 µM and the IC50 of product inhibition of SENP1 cleavage of YFP–SUMO-2-FL–ECFP (500 nM) was 2.23 µM.
